The text below walks through data of US20030162714A1 (Pfizer, published 2003).

This assay deals with T1, recombinant purified GDF-8 (UniProt O14793 267-375, limits assumed).
T1 sequence (looked up): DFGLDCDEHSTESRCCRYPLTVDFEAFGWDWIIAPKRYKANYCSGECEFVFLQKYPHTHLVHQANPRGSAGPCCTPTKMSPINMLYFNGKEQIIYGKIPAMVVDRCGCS
Put plainly: cell-based or functional assay.

B1: mouse GASP1 cloned with a C-terminal V5-His tag (GASP1-V5-His) (other, not shown: small tags and cut ends)
chain: LPPIRYSHAGICPNDMNPNLWVDAQSTCKRECETDQECETYEKCCPNVCGTKSCVAARYMDVKGKKGPVGMPKEATCDHFMCLQQGSECDIWDGQPVCKCKDRCEKEPSFTCASDGLTYYNRCFMDAEACSKGITLSVVTCRYHFTWPNTSPPPPETTVHPTTASPETLGLDMAAPALLNHPVHQSVTVGETVSFLCDVVGRPRPELTWEKQLEDRENVVMRPNHVRGNVVVTNIAQLVIYNVQPQDAGIYTCTARNVAGVLRADFPLSVVRGGQARATSESSLNGTAFPATECLKPPDSEDCGEEQTRWHFDAQANNCLTFTFGHCHHNLNHFETYEACMLACMSGPLATCSLPALQGPCKAYVPRWAYNSQTGLCQSFVYGGCEGNGNNFESREACEESCPFPRGNQHCRACKPRQKLVTSFCRSDFVILGRVSELTEEQDSGRALVTVDEVLKDEKMGLKFLGREPLEVTLLHVDWTCPCPNVTVGETPLIIMGEVDGGMAMLRPDSFVGASSTRRVRKLREVMYKKTCDVLKDFLGLQ
For B1, the “IC50 for inhibition of GDF-8 in the reporter gene assay ((CAGA)12 luciferase, RD cells, 20 ng/ml GDF-8)” value is approximately 3 nM.
